Data from patent US8669345 (Biogen, dated 2014).

Legend:
[1] = molecular target: T1, 15 kDa acid fragment of sNgR310 (aa 27-aa 122) (rat, UniProt Q99M75 27-122); assay: western blot
T1 construct: acid cleavage product of rat sNgR310
T1 chain: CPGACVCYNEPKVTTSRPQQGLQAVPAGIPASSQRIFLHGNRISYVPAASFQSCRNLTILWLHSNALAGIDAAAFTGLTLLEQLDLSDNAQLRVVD
Method: (§1) A recombinant fragment of the rat NgR1 that contains all 8 LRR domains and the N- and C-terminal caps (sNgR310) was treated with either acid or cyanogen bromide (CNBr) and separated the fragments by gel electrophoresis.

[2] = molecular target: T2, 35 kDa CNBr fragment of sNgR310 (aa 27-aa 229) (rat, UniProt Q99M75 27-229); assay: western blot
T2 construct: CNBr cleavage product of rat sNgR310; also called 33/35 kDa doublet
T2 chain: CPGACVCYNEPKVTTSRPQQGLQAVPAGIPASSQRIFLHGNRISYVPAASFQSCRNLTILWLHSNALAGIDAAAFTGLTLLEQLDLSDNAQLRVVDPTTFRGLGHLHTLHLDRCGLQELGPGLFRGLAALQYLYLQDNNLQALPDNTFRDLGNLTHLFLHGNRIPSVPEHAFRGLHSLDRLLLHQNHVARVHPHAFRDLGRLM
Method: as §1

[3] = molecular target: T3, 10 kDa CNBr fragment of sNgR310 (aa 241-aa 310) (rat, UniProt Q99M75 241-310); assay: western blot
T3 construct: CNBr cleavage product of rat sNgR310
T3 chain: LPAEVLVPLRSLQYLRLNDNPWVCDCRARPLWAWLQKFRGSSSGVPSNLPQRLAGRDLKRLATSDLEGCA
Method: as §1

[4] = molecular target: T4, peptide LDLSDNAQLR (Wild-type Fragment) (rat); assay: MS of peptides bound by 7E11
T4 peptide: LDLSDNAQLR

[5] = molecular target: T5, peptide LDLSDDAELR (deaminated wild-type fragment); assay: MS of peptides bound by 7E11
T5 construct: deamination at Asn115 and Gln117
T5 peptide: LDLSDDAELR

[6] = molecular target: T6, peptide LDLASDNAQLR (Scrambled Fragment #1); assay: MS of peptides bound by 7E11
T6 peptide: LDLASDNAQLR

[7] = molecular target: T7, peptide LDLASDDAELR (Scrambled Fragment #1, deaminated); assay: MS of peptides bound by 7E11
T7 peptide: LDLASDDAELR

[8] = molecular target: T8, peptide LDALSDNAQLR (Scrambled Fragment #2); assay: MS of peptides bound by 7E11
T8 peptide: LDALSDNAQLR

[9] = molecular target: T9, peptide LDALSDDAELR (Scrambled Fragment #2, deaminated); assay: MS of peptides bound by 7E11
T9 peptide: LDALSDDAELR

[10] = molecular target: T10, peptide LDLSSDNAQLR (Scrambled Fragment #3); assay: MS of peptides bound by 7E11
T10 peptide: LDLSSDNAQLR

peptide DNAQLRVVDPTT = molecular target: T11, peptide DNAQLRVVDPTT (rat); assay: endoprotease Asp-N digest of p-617
T11 peptide: DNAQLRVVDPTT

[11] = molecular target: T12, peptide LDLSDNAALRVVDPTT (Q117A); assay: ELISA, peptides immobilized on MaxiSorp plate
T12 construct: also called Gln17Ala (so in the source)
T12 peptide: LDLSDNAALRVVDPTT

[12] = molecular target: T13, peptide LDLSDNAQLHVVDPTT (R119H); assay: ELISA, peptides immobilized on MaxiSorp plate
T13 construct: also called Arg119His; R11911 (so in the source)
T13 peptide: LDLSDNAQLHVVDPTT

[13] = molecular target: T14, tryptic peptide AAAFTGLTLLEQLDLSDNAQLR (rat); assay: tryptic digest of sNgR310, MS and sequence analysis
T14 construct: tryptic digest peptide of rat sNgR310
T14 peptide: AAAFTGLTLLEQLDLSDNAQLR

[14] = molecular target: T15, Nogo receptor-1 (species and construct not stated); assay: surface plasmon resonance (BIAcore) per the text; NgR1 construct not stated
T15 sequence (Q9BZR6 27-447, species assumed, looked up): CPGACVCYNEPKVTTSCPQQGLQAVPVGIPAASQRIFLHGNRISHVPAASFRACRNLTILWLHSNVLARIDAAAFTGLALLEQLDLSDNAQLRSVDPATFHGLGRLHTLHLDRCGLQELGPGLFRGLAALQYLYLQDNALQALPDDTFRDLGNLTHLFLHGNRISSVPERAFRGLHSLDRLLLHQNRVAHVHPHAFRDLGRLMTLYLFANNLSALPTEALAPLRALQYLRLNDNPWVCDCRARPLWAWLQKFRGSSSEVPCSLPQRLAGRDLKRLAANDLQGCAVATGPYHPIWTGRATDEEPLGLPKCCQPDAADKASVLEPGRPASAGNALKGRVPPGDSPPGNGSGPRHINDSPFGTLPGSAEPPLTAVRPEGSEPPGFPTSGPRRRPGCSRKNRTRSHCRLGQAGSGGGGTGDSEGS

B1: monoclonal antibody 7E11 (antibody, V domains shown)
VH: VQLQESGAELVMPGASVKMSCKASGYTFTDYWMHWVKQRPGQGLEWIGAIDPSDSYSSYNQNFKGKATLTVDGSSSTAYMQLSSLTSEDSAVYYCARRITEAGAWFAYWGQGTTVT
VL: DVVMTQTPLSLPVSLGDQASISCRSSQSLVHSNGNTYLHWYLQKPGQSPKLLIYKVSNRFSGVPDRFSGSGSGTDFTLKISRVDAEDLGVYFCSQSTHVPFTFGGGTKLEIKR
notes: murine IgG1, kappa; immunogen: peptide of rat NgR1 residues 110-125; also called mAb 7E11; HB 7E11 (ATCC PTA-4587)
binding result [1]: binds
binding result [2]: binds
binding result [3]: no binding
binding result [4]: binds
binding result [5]: binds
binding result [6]: binds
binding result [7]: binds
binding result [8]: binds
binding result [9]: binds
binding result [10]: binds
binding result (peptide DNAQLRVVDPTT): binds
fold increase of EC50 against the original peptide [11]: 30 fold
fold increase of EC50 against the original peptide [12]: 25 fold
binding result [13]: binds
Kd [14]: 100 nM
